These results are taken from publication PMC10439915, “Development of an interfering peptide M1-20 with potent anti-cancer effects by targeting FOXM1” (Cell Death & Disease, 2023).

Non-standard residues stand in square brackets, D forms with d. No end group written: not given here.

One data set deals with T1, endogenous FOXM1 (Homo sapiens, UniProt Q08050).
T1 construct: endogenous in cells; host or cells: MDA-MB-231 cell lysates
T1 sequence (Q08050 1-763): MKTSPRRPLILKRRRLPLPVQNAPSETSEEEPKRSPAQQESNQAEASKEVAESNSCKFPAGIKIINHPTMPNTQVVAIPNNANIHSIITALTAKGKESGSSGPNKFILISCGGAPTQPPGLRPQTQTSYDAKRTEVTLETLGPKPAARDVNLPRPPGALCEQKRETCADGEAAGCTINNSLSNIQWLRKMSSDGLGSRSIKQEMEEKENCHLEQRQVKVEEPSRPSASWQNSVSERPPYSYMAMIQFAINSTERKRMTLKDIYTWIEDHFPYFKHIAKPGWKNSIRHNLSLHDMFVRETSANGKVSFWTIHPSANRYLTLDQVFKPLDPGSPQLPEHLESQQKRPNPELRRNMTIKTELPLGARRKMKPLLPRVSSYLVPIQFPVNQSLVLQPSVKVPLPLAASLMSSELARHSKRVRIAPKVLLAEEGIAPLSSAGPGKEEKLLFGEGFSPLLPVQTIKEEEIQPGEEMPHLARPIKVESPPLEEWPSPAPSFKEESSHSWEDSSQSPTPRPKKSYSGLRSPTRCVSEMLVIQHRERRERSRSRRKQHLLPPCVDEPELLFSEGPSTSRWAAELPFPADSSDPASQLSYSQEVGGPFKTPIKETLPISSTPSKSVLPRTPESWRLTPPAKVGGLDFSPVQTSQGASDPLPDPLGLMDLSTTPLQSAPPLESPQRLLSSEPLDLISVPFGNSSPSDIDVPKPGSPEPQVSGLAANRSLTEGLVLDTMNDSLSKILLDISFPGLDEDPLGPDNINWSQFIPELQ
Description: Biotin-peptide pull-down of endogenous FOXM1 from MDA-MB-231 cell lysates. In kind it is binding. As to conditions: biotin-labeled peptide, MDA-MB-231 cell lysates (500 μg), Streptavidin Agarose Resin, Western Blotting. The protocol:
(§1) Fig. 2 The screening of the FOXM1-interacting peptide M1-20. A The diagram of peptide array (P1-P9) in which peptides (20-mer) covering FOXM1_689-748 with a shifting window of five residues were conjugated to the cell-penetrating peptide TAT and produced by solid-phase peptide synthesis. The P1-P9 peptides were biotin-labeled respectively and added in MDA-MB-231 cell lysates (500 μg) which were incubated with Streptavidin Agarose Resin to pull down biotin-peptide/protein complexes. Biotin and FOXM1 proteins in samples were detected by Western Blotting with certain antibodies. 10% of cell lysates (50 μg) were used as input controls. […] The absorbance at 450 nm and the relative cell viability in each well was calculated. […] GST-tag and Biotin-tag were detected by Western Blotting with certain antibodies. […] E The curve represented the quantification of binding affinity between GFP-labeled FOXM1_1-138 and P5 or P5mut by Microscale Thermophoresis (MST, Monolith NT.115, NanoTemper). Data points indicated the fraction of FOXM1_1-138-bound peptide (ΔNormal/Amplitude) at different concentrations, and curves indicated the calculated fits. […] F The biotin signals indicated the peptide stability of P5 and M1-20 in HEK293T cell lysates analyzed by Western Blotting. The levels of peptide were quantified by Image J software and graphed with GraphPad Prism 9 (n = 3). […]
For orientation: A western blot detects proteins with antibodies after separation by electrophoresis.

The test system of the next data set is MDA-MB-231 cells. As to the kind of experiment: CCK-8 cell viability. In kind it is cell-based, human. As to conditions: 0, 10, 20, 40, 80, 160 µM, 36 h, n = 3. On the procedure: as §1
The target in data set [1] is T2, FOXM1_1-138 (Homo sapiens, UniProt Q08050).
T2 construct: The cDNA of FOXM1(1-138aa) was PCR amplified from pCMV-FOXM1 plasmid; EGFP (C); His (pET-32a vector; Ni-Sepharose purification); made in house; host or cells: E. coli Rosetta/DE3
T2 sequence (Q08050 1-138 isoform Q08050-2): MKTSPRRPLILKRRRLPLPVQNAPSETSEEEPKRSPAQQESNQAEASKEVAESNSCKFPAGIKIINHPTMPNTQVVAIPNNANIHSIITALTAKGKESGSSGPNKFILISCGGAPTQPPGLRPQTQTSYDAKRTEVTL
As to the kind of experiment: Biotin-peptide pull-down of recombinant FOXM1_1-138. Type of data set: binding. The following applies: biotin-labeled peptide (10 μg), recombinant protein (50 μg), Streptavidin Agarose Resin. The protocol: as §1

Data set [2] has as its target T2, FOXM1_1-138. As to the kind of experiment: Microscale thermophoresis binding of peptide to GFP-labeled FOXM1_1-138. As to conditions: MST, Monolith NT.115, peptide 0.030 to 1000 μM in PBS with 0.05% Tween-20, 25 °C, mean of three independent measurements. The protocol: Measurements were performed by Monolith NT.115 instrument (NanoTemper). The data were analyzed by MO. Affinity Analysis v2.3 NT software (NanoTemper) to determine interaction parameters. Details were described in the supplemental materials and methods.
as §1, with “The P1-P9 peptides were biotin-labeled respectively and added in MDA-MB-231 cell lysates (500 μg) which were incubated with Streptavidin Agarose Resin to pull down biotin-peptide/protein complexes.” left out, “antibodies.” for “antibodies. 10% of cell lysates (50 μg) were used as input controls.”

A further data set deals with T3, His-FOXM1 (UniProt Q08050-2 1-748).
T3 sequence: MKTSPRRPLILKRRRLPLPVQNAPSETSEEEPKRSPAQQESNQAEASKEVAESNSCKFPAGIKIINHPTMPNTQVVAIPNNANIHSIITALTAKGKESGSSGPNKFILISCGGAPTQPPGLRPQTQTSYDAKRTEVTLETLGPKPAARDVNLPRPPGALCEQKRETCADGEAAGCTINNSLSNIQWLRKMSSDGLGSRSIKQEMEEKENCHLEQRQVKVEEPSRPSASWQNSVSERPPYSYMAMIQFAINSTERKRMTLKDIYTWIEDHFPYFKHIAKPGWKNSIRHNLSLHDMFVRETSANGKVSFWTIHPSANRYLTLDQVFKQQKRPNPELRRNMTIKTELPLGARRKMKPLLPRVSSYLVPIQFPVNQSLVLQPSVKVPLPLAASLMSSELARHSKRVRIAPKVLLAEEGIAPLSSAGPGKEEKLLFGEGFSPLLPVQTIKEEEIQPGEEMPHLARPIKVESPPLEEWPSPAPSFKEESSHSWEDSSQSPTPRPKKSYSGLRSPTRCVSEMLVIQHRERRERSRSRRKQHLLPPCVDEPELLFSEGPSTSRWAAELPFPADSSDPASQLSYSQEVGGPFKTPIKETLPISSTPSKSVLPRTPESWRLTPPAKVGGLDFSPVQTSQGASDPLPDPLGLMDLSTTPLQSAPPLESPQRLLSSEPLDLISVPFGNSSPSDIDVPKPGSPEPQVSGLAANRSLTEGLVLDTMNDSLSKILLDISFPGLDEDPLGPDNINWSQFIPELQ
As to the kind of experiment: EMSA; plus M1-20 peptide (5 and 10 uM in legend; 0.5, 1 and 2 uM in Suppl. Methods); DNA binding not disrupted; 20 mM Tris-Cl pH 7.6, 50 mM KCl, 10% glycerol, 0.5 mM EDTA, 0.2 mM DTT, 30 min on ice; 4% native PAGE in 0.5x TBE. The following applies: protein: recombinant; tags: His; label: 5'-FAM on forward strand (hot); blunt. (In EMSA bound probe runs differently from free probe, usually more slowly.)

The target of data set [3] is T4, GFP-labeled FOXM1_(1-138) (human, UniProt Q08050-3 1-138).
T4 construct: The fluorescent partner of the MST; Details are in the supplemental materials and methods
T4 sequence (looked up): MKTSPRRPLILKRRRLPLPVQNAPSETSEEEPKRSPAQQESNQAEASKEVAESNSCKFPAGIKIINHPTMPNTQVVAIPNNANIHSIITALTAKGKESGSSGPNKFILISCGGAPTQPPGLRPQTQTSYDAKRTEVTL
Description: MST; GFP-labeled FOXM1(1-138) with peptide at different concentrations; Monolith NT.115 (NanoTemper), MO.Affinity Analysis v2.3; three independent measurements. The following applies: both partners purified.

For the molecule “P5: the sequence 709-728aa of FOXM1, 20-mer conjugated with TAT cell-penetrating sequence; natural parent peptide of M1-20”, the “interaction with endogenous FOXM1 (pull-down)” value with endogenous FOXM1 is reported as “interacted with endogenous FOXM1 with variable affinities”. For the same molecule, the “inhibition of MDA-MB-231 cells in the P1-P9 library screen” value with MDA-MB-231 cells was “significantly inhibited MDA-MB-231 breast cancer cells in a dose-dependent manner”. In addition, the “binding to recombinant FOXM1_1-138 (pull-down)” value with FOXM1_1-138 [1] is recorded as “bind to recombinant GST-FOXM1_1-138 protein”.
Take “P5mut: P5 with three residues mutated (L721A, I723A, S724A) (LDTMNDSLSKILADAAFPGL; also: conjugated to TAT cell-penetrating sequence (as parent P5))”: the “KD, binding affinity to FOXM1_1-138” value with FOXM1_1-138 [2] is “unmeasurable”.

B1: FAM-labeled FOXM1 EMSA probe (dsDNA)
DNA 1: TTTGTTTATTTGTTTGTTTATTTG
DNA 2: CAAATAAACAAACAAATAAACAAA
As to B1, in the data set with His-FOXM1, the binding result is “binds”.
Broadly, the Kd is the constant that tells how readily two partners part at equilibrium. The low end stands for higher affinity, the high end for lower affinity. In data set [3], LDTMNDSLSKILLDISFPGL (also: conjugated to TAT cell-penetrating sequence) [P5] gave a Kd of 43.1 µM.
On the same count and under the same terms, the value for [dL]G[dP][dF][dS][dI][dD][dL][dL][dI][dK][dS][dL][dS][dD][dN][dM][dT][dD][dL] [M1-20] was 5.66 µM; that for [dL]G[dP][dF][dA][dA][dD][dA][dL][dI][dK][dS][dL][dS][dD][dN][dM][dT][dD][dL] [M1-20mut] was 386 µM.
